From publication doi:10.1101/2023.11.29.569239

How the values were obtained:
MBP-ΔΔ DDX3Y = MBP-ΔΔ DDX3Y (UniProt O15523 130-605); test: EMSA
MBP-ΔΔ DDX3X = MBP-ΔΔ DDX3X (UniProt O00571 132-607); test: EMSA
MBP-DDX3X full-length [1] = biological target: T1, MBP-DDX3X full-length (UniProt O00571 1-662); test: single-particle FRET
MBP-DDX3Y full-length [2] = biological target: T2, MBP-DDX3Y full-length (UniProt O15523 1-660); test: single-particle FRET
MBP-DDX3X full-length [3] = biological target: T1, MBP-DDX3X full-length; test: EMSA
MBP-DDX3Y full-length [4] = biological target: T2, MBP-DDX3Y full-length; test: EMSA

T1 sequence (O00571 whole entry): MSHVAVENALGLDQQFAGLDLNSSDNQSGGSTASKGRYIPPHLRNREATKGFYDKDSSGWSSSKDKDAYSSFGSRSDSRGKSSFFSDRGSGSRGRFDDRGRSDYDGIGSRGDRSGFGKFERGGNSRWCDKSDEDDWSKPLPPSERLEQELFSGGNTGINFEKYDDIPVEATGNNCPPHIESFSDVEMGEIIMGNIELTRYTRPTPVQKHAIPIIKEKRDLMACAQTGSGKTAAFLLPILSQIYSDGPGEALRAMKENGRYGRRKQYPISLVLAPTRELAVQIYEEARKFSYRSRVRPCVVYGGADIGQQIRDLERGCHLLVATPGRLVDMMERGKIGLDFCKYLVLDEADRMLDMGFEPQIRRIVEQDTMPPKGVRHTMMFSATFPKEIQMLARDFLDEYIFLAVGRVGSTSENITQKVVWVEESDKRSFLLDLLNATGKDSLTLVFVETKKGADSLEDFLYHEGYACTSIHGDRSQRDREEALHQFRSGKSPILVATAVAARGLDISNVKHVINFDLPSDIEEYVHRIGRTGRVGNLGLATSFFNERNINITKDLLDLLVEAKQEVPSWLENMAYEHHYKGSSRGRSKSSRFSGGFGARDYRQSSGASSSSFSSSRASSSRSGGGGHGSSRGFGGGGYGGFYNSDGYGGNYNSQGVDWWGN
T2 sequence (O15523 whole entry): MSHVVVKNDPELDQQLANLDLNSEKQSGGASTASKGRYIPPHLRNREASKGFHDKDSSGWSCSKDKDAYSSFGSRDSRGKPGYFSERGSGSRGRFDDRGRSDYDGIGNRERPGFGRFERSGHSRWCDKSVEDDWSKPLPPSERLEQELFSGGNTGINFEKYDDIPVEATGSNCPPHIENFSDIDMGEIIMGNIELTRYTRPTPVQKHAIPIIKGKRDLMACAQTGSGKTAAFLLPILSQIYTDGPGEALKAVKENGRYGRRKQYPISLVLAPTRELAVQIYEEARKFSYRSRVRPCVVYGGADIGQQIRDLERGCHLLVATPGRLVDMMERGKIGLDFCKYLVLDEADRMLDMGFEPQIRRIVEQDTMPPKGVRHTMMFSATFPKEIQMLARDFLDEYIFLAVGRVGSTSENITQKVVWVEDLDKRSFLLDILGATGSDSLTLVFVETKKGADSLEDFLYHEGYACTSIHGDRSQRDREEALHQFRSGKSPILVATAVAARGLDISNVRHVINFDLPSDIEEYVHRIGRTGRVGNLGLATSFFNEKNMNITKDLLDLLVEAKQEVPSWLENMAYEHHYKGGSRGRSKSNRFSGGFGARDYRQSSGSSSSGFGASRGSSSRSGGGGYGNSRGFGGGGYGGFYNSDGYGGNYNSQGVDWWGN
Chain of MBP-ΔΔ DDX3X (O00571 132-607, stated change not applied): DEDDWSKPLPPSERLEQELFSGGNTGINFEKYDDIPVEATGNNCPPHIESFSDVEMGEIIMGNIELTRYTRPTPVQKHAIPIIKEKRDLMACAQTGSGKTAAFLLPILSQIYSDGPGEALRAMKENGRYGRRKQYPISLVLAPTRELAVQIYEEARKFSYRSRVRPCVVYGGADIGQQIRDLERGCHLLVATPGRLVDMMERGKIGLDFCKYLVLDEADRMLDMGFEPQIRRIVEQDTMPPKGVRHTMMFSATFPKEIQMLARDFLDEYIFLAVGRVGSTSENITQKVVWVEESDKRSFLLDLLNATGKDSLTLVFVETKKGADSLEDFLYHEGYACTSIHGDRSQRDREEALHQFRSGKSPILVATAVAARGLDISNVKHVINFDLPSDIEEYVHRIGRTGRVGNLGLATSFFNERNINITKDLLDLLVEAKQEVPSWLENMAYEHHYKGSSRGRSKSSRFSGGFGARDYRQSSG
Chain of MBP-ΔΔ DDX3Y (O15523 130-605, stated change not applied): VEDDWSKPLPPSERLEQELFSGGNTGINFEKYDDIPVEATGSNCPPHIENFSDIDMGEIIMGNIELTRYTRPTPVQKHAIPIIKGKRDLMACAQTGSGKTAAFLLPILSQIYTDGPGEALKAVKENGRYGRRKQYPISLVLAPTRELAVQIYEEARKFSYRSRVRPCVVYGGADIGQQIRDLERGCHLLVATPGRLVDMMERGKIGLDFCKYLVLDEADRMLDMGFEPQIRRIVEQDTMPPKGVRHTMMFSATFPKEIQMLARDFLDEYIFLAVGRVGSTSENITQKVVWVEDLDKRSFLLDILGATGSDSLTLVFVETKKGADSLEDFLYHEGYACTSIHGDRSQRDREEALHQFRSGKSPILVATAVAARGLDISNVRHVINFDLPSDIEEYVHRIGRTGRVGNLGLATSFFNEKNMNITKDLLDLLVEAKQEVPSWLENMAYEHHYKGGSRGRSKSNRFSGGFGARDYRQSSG

B1: dsRNA I (18-mer/42-mer) (dsRNA)
RNA 1: ACCGCUGCCGUCGCUCCG
RNA 2: UUUUUUUUUUUUUUUUUUUUUUUUCGGAGCGACGGCAGCGGU
What does the source list for B1?
binding signal (MBP-ΔΔ DDX3Y): > 3 fold Kd increase vs full-length; binding signal (MBP-ΔΔ DDX3X): > 3 fold Kd increase vs full-length; apparent K (half saturation) (MBP-DDX3X full-length [1]): 4.1 ± 2 µM; apparent K (half saturation) (MBP-DDX3Y full-length [2]): 3.7 ± 3 µM; Kd (MBP-DDX3X full-length [3]): 519 nM; Kd (MBP-DDX3Y full-length [4]): 884 nM
